Assay results reported in patent US20260250711A1 (Alexion, published 2026).

Target: T1, human sortilin receptor (SORT1), recombinant protein (human, UniProt Q99523 78-755, limits assumed)
T1 construct: Recombinant protein; also called sortilin 1
T1 sequence (looked up): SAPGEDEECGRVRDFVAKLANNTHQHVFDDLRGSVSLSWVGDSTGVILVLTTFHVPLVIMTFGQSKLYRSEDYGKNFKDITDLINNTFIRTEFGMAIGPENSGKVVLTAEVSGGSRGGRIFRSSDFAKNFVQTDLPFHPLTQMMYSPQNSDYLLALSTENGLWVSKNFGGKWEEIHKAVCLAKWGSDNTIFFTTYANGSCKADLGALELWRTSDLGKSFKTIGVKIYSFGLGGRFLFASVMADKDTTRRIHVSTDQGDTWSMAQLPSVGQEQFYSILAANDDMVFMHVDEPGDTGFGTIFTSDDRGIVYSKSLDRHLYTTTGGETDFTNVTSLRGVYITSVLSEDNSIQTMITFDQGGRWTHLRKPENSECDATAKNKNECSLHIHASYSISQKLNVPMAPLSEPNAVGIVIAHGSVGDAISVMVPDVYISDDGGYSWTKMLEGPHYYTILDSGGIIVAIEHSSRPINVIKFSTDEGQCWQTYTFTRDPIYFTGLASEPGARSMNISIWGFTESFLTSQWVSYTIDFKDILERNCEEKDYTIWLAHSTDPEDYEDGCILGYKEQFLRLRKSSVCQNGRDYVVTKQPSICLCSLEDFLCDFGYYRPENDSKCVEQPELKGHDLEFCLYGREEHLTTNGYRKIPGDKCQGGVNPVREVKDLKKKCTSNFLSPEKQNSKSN
Test: Biacore (SPR), His-tagged PGRNΔ3 over immobilized human sortilin

B1: recombinant human His-tagged progranulin lacking the final three carboxy-terminal amino acids (PGRNΔ3) (ligand)
chain: TRCPDGQFCPVACCLDPGGASYSCCRPLLDKWPTTLSRHLGGPCQVDAHCSAGHSCIFTVSGTSSCCPFPEAVACGDGHHCCPRGFHCSADGRSCFQRSGNNSVGAIQCPDSQFECPDFSTCCVMVDGSWGCCPMPQASCCEDRVHCCPHGAFCDLVHTRCITPTGTHPLAKKLPAQRTNRAVALSSSVMCPDARSRCPDGSTCCELPSGKYGCCPMPNATCCSDHLHCCPQDTVCDLIQSKCLSKENATTDLLTKLPAHTVGDVKCDMEVSCPDGYTCCRLQSGAWGCCPFTQAVCCEDHIHCCPAGFTCDTQKGTCEQGPHQVPWMEKAPAHLSLPDPQALKRDVPCDNVSSCPSSDTCCQLTSGEWGCCPIPEAVCCSDHQHCCPQGYTCVAEGQCQRGSEIVAGLEKMPARRASLSHPRDIGCDQHTSCPVGQTCCPSLGGSWACCQLPHAVCCEDRQHCCPAGYTCNVKARSCEKEVVSAQPATFLARSPHVGVKDVECGEGHFCHDNQTCCRDNRQGWACCPYRQGVCCADRRHCCPAGFRCAARGTKCLRREAPRWDAPLRDPALR
notes: also called PGRNDel3; progranulinΔ3; not shown: HIS-tag fused to the N-terminal part of the protein
Q: Does B1 bind?
A: no binding
